Measured values taken from JP2013230152A.

Key:
遺伝子型3aの単離物のE1E2 = assay: cell-based or functional assay
[1] = biological target: 遺伝子型5の単離物のE1E2(MAb AP33反応性); assay: cell-based or functional assay
[2] = biological target: H77 E1E2突然変異型G418A (Hepatitis C virus genotype 1a, strain H77) (UniProt P27958); assay: GNA capture EIA, mutant E1E2 from HEK293T cells
[3] = biological target: H77 E1E2突然変異型L413A (Hepatitis C virus genotype 1a, strain H77) (UniProt P27958); assay: GNA capture EIA, mutant E1E2 from HEK293T cells
[4] = biological target: H77 E1E2突然変異型N415A (Hepatitis C virus genotype 1a, strain H77) (UniProt P27958); assay: GNA capture EIA, mutant E1E2 from HEK293T cells
[5] = biological target: H77 E1E2突然変異型Q412A (Hepatitis C virus genotype 1a, strain H77) (UniProt P27958); assay: GNA capture EIA, mutant E1E2 from HEK293T cells
[6] = biological target: H77 E1E2突然変異型W420A (Hepatitis C virus genotype 1a, strain H77) (UniProt P27958); assay: GNA capture EIA, mutant E1E2 from HEK293T cells
[7] = biological target: 412〜423分枝ペプチド (Hepatitis C virus); assay: antibody titration on the 412-423 branched peptide (Figure 10)

## モノクローナル抗体AP33 (antibody)
遺伝子型3aの単離物のE1E2
  IC 50(HCV pp 中和): 22 µg/mL
[1]
  IC 50(HCV pp 中和): 0.6 µg/mL
[2]
  decrease of binding compared with wild type: > 75%
[3]
  decrease of binding compared with wild type: > 75%
[4]
  decrease of binding compared with wild type: > 75%
[5]
  increase of binding compared with wild type H77: 50%
[6]
  decrease of binding compared with wild type: > 75%
[7]
  concentration for 50% binding, how much lower than that of MAb 3/11: > 10
